# Test results as given in patent US20250027060A1 (VIB VZW, published 2025).
# T1: LTKTG-EGFL (human LTK amino acids 63-420) (human, UniProt P29376 63-420)
# T1 construct: Fc-His6 tag removed by caspase 3; also called LTK (in BLI, SEC-MALLS and ITC)
# T1 sequence: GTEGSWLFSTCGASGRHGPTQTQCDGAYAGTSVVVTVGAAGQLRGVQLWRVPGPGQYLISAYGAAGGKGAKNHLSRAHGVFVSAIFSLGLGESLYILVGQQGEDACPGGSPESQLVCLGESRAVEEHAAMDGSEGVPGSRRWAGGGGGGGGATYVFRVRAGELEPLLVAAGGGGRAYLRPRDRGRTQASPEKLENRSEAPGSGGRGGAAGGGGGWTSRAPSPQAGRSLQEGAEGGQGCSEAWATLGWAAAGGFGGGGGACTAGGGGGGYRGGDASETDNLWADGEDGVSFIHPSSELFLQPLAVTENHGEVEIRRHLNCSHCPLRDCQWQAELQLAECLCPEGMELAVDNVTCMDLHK
# T2: LTKTG (human LTK amino acids 63-379) (human, UniProt P29376 63-379)
# T2 construct: also called LTK TG supradomain
# T2 sequence: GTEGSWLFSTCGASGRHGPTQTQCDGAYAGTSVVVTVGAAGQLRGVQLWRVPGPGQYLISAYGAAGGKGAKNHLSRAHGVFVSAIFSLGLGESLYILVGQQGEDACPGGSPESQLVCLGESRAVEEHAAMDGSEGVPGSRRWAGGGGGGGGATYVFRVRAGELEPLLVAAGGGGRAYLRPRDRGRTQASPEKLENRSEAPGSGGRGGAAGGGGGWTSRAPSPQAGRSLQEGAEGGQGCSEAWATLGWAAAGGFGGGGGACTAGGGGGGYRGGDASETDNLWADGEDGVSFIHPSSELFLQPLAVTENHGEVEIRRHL
# B1: ALKAL2 (truncated, residues 78-152) (ligand, human, UniProt Q6UX46 78-152, looked up)
# chain: PSPEQRVEIVPRDLRMKDKFLKHLTGPLYFSPKCSKHFHRLYHNTRDCTIPAYYKRCARLLTRLAVSPVCMEDKQ
# notes: range 78-152; Tag-free in ITC, SEC-MALLS, crystals and Ba/F3 assays; also called ALKAL2^WT; WT ALKAL2
# B2: ALKAL2^R123E (residues 78-152) (ligand, human, UniProt Q6UX46 78-152, looked up)
# chain: PSPEQRVEIVPRDLRMKDKFLKHLTGPLYFSPKCSKHFHRLYHNTEDCTIPAYYKRCARLLTRLAVSPVCMEDKQ
# notes: range 78-152; also called ALKAL2 site 1 mutant R123E
# B3: ALKAL2^H100A (residues 78-152) (ligand, human, UniProt Q6UX46 78-152, looked up)
# chain: PSPEQRVEIVPRDLRMKDKFLKALTGPLYFSPKCSKHFHRLYHNTRDCTIPAYYKRCARLLTRLAVSPVCMEDKQ
# notes: range 78-152; Avi-tagged and biotinylated in BLI; also called ALKAL2 site 2 mutant H100A
# Legend:
# [1] = biological target: T3, ALKTG (human ALK amino acids 648-985) (human, UniProt Q9UM73 648-985, N-linked glycans; EndoH-trimmed for crystals and SEC-MALLS); experiment: ITC
# T3 construct: Fc-His6 tag removed by caspase 3; also called ALK TG supradomain
# T3 sequence (Q9UM73 648-985 limits assumed): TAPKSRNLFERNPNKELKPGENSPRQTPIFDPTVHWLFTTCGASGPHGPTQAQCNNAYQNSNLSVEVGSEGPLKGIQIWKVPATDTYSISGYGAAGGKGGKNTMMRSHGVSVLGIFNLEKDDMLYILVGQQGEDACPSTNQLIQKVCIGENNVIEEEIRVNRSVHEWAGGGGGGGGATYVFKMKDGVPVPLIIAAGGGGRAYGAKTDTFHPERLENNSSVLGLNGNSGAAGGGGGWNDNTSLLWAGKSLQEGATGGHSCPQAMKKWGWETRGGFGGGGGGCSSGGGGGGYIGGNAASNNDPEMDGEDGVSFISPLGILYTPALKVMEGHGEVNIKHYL
# Description: (§1) Experiments were performed using a MicroCal PEAQ-ITC instrument at 310K. Proteins used in ITC experiments were expressed in HEK293S cells grown in suspension. As a final purification step all proteins were buffer exchanged to the same HBS buffer via size-exclusion chromatography. Titrations were preceded by an initial injection of 0.5 μL. The injection spacing was optimized per experiment to allow for the signal to get back to a stable baseline. Throughout the titration the sample was stirred at a speed of 750 r.p.m. Data were analyzed using the PEAQ-ITC analysis software (version 1.1.0.1262, Malvern) and fit using a “one set of sites” model.
# [2] = biological target: T4, ALKTG-EGFL (human ALK amino acids 648-1025) (human, UniProt Q9UM73 648-1025, N-linked glycans; EndoH-trimmed (deglycosylated) for crystals and SEC-MALLS); experiment: ITC at 310 K, ALKTG-EGFL (10 µM) titrated with ALKAL2 (100 µM), one-site model
# T4 construct: The C-terminal Fc-His6 tag was removed by caspase 3; also called ALK (in BLI, SEC-MALLS and ITC)
# T4 sequence (Q9UM73 648-1025): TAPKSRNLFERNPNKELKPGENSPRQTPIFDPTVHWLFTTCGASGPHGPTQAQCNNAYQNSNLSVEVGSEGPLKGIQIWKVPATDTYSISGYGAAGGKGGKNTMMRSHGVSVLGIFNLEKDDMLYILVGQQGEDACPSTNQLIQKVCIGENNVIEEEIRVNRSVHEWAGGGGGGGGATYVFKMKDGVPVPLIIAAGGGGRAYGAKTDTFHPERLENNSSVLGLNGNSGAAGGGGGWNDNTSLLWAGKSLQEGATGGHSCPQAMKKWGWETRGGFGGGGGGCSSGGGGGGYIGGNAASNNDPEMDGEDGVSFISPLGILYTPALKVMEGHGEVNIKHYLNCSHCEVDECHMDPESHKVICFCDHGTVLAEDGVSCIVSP
# Description: (§2) FIG. 5A and FIG. 5B Isothermal titration calorimetry thermograms for the titration of ALK_TG-EGFL (10 μM) with ALKAL2 (100 μM) (FIG. 5A) and titration of ALKAL1 (25 μM) with ALK_TG-EGFL (210 μM) (FIG. 5B). […] The right panel represents the binding isotherm obtained from the integration of the raw data and fitted to a one-site model. Standard deviations were calculated based on 3 measurements.
# as §1
# [3] = biological target: T1, LTKTG-EGFL (human LTK amino acids …); experiment: ITC at 310 K, LTKTG-EGFL (12 µM) titrated with ALKAL2 (56 µM), one-site model
# Description: (§3) The right panel represents the binding isotherm obtained from the integration of the raw data and fitted to a one-site model. Standard deviations were calculated based on 3 measurements.
# as §1
# [4] = biological target: T1, LTKTG-EGFL (human LTK amino acids …); experiment: ITC, 310 K, one-site model, 2:1 stoichiometry
# Description: as §3, §1
# [5] = biological target: T3, ALKTG (human ALK amino acids 648-985); experiment: ITC at 310 K, ALKAL2 (33 µM) titrated with ALKTG (330 µM), one-site model
# Description: FIG. 5D, Titration of ALKAL2 (33 μM) with ALKTG (330 μM) Standard deviations were calculated based on 3 measurements.
# as §1
# [6] = biological target: T1, LTKTG-EGFL (human LTK amino acids …); experiment: BLI, biotinylated ALKAL2 on streptavidin biosensors, LTKTG-EGFL in solution 300 nM to 11 nM, 2:1 binding model, component 2
# Description: (§4) FIGS. 10A and 10B Representative response curves as measure by biolayer-interferometry (BLI) for the interaction of WT ALKAL1 and ALKAL1 mutants (containing charge-reversal mutations of residues involved in site 1) (FIG. 10A) and WT ALKAL2 and ALKAL2 mutants (FIG. 10B) with ALK_TG-EGFL and LTK_TG-EGFL. For WT ALKALs LTK curves were fitted with a 2:1 binding model (red) while for ALK a 1:1 model was used. Start and end concentrations of the 3-fold dilution series used for the WT measurements is shown as an inset while for all mutants a […] dilution series from 6.4 μM-400 nM was used.
# (§5) All measurements of binding kinetics and dissociation constants were performed using an Octet Red 96 (Forté Bio) in assay buffer (20 mM HEPES pH 7.4, 150 mM NaCl, 0.02% (w/v) BSA, 0.002% (v/v) Tween 20) at 298K. ALKALs were immobilized to a level of 0.5 nm on streptavidin-coated biosensors (Forté Bio). To verify that no a specific binding was present during the assay, non-functionalized biosensors were used as a control by measuring in parallel all ligand concentrations as well as running buffer. For all mutants a two-fold dilution series from 6.4 μM-400 nM was employed. Data analysis was performed using the Data Analysis software 9.0.0.14 (Forté Bio) and binding curves were exported to Prism8 (Graphpad Software) for plotting of curves.
# [7] = biological target: T2, LTKTG (human LTK amino acids 63-379); experiment: ITC at 310 K, LTKTG (10 µM) titrated with ALKAL2 (100 µM), one-site model
# Description: FIG. 12G, ITC experiments for the titration of LTKTG (10 μM) with ALKAL2 (100 μM) Standard deviations were calculated based on 2 measurements.
# as §1
# [8] = biological target: T4, ALKTG-EGFL (human ALK amino acids …); experiment: BLI, biotinylated ALKAL2 on streptavidin biosensors, ALKTG-EGFL in solution 800 nM to 12.5 nM, 1:1 model
# Description: as §4, §5
# [9] = biological target: T4, ALKTG-EGFL (human ALK amino acids …); experiment: ITC, 310 K, one-site model
# Description: as §2, §1
# [10] = biological target: T1, LTKTG-EGFL (human LTK amino acids …); experiment: BLI, biotinylated ALKAL2 on streptavidin biosensors, LTKTG-EGFL in solution 300 nM to 11 nM, 2:1 binding model, component 1
# Description: as §4, §5
# [11] = biological target: T5, ALKFL (full-length human ALK ectodomain, amino acids 19-1025) (human, UniProt Q9UM73 19-1025); experiment: ITC at 310 K, ALKFL (8 µM) titrated with ALKAL2 (82 µM), one-site model
# T5 construct: Fc-His6 tag removed by caspase 3; also called full-length ALK ectodomain
# T5 sequence (Q9UM73 19-1025): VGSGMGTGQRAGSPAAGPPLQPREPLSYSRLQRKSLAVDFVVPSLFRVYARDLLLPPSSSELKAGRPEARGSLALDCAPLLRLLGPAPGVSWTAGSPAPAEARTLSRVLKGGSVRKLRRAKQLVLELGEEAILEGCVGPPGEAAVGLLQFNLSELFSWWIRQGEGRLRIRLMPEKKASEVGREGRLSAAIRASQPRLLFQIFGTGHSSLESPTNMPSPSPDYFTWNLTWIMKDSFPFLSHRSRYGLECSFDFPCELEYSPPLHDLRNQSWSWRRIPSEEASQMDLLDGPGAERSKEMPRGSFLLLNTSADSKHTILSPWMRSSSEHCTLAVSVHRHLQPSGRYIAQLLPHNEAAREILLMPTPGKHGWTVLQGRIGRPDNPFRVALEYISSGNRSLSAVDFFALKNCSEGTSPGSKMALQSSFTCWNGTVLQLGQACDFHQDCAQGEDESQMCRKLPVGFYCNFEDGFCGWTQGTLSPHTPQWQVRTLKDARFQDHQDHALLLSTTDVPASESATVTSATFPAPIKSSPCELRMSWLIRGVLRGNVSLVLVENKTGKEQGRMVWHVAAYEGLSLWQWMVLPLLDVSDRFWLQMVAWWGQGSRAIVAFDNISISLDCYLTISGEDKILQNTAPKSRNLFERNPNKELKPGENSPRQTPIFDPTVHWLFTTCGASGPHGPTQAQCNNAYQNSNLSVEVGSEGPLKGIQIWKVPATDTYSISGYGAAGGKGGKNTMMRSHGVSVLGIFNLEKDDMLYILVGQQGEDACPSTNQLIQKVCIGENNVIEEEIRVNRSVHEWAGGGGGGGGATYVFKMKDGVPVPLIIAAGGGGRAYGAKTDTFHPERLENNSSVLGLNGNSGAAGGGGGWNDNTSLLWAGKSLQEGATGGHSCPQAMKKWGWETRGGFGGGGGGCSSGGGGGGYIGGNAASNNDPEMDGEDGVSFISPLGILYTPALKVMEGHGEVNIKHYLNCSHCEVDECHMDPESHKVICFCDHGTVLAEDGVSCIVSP
# [12] = biological target: T1, LTKTG-EGFL (human LTK amino acids …); experiment: BLI, biotinylated ALKAL2 R123E on streptavidin biosensors, LTKTG-EGFL in solution, dilution series 6.4 µM-400 nM
# Description: as §4, §5
# [13] = biological target: T4, ALKTG-EGFL (human ALK amino acids …); experiment: BLI, biotinylated ALKAL2 R123E on streptavidin biosensors, ALKTG-EGFL in solution, dilution series 6.4 µM-400 nM
# Description: as §4, §5
# [14] = biological target: T1, LTKTG-EGFL (human LTK amino acids …); experiment: BLI, biotinylated ALKAL2 H100A on streptavidin biosensors, LTKTG-EGFL in solution, dilution series 6.4 µM-400 nM, biphasic fit, component 2; the sheet prints x0^-1, taken as x10^-1
# Description: as §4, §5
# [15] = biological target: T1, LTKTG-EGFL (human LTK amino acids …); experiment: BLI, biotinylated ALKAL2 H100A on streptavidin biosensors, LTKTG-EGFL in solution, dilution series 6.4 µM-400 nM, biphasic fit, component 1
# Description: as §4, §5
# [16] = biological target: T1, LTKTG-EGFL (human LTK amino acids …); experiment: BLI, biotinylated ALKAL2 H100A on streptavidin biosensors, LTKTG-EGFL in solution, dilution series 6.4 µM-400 nM, biphasic fit, component 2
# Description: as §4, §5
binder,measurement,setting,value
B1,fold decrease in affinity against ALKTG-EGFL,[1],30 fold
same,ΔG,[2],-10.6 kcal/mol
same,ΔH,[2],-10.1 kcal/mol
same,Kd,[3],10 nM
same,ΔG,[3],-11.4 kcal/mol
same,ΔH,[3],-31 kcal/mol
same,Kd,[4],55 nM
same,Kd,[5],1300 nM
same,ΔG,[5],-8.34 kcal/mol
same,ΔH,[5],-8.3 kcal/mol
same,Kd,[6],350 nM
same,koff,[6],0.0005 s⁻¹
same,kon,[6],4000 M⁻¹ s⁻¹
same,Kd,[7],6.8 nM
same,ΔG,[7],-11.6 kcal/mol
same,ΔH,[7],-30.2 kcal/mol
same,Kd,[8],135 nM
same,Kd,[9],40 nM
same,Kd,[10],100 nM
same,koff,[10],0.0037 s⁻¹
same,kon,[10],28000 M⁻¹ s⁻¹
same,Kd,[11],70 nM
same,ΔG,[11],-9.4 kcal/mol
same,ΔH,[11],-9.7 kcal/mol
B2,Kd,[12],2300 nM
same,Kd,[13],3500 nM
B3,koff,[14],0.16 s⁻¹
same,Kd,[15],280 nM
same,koff,[15],0.00082 s⁻¹
same,kon,[15],2900 M⁻¹ s⁻¹
same,Kd,[16],3000 nM
same,kon,[16],53000 M⁻¹ s⁻¹
